T1: Elastase from human neutrophils (human, UniProt P08246 30-247, limits assumed)
T1 sequence (looked up): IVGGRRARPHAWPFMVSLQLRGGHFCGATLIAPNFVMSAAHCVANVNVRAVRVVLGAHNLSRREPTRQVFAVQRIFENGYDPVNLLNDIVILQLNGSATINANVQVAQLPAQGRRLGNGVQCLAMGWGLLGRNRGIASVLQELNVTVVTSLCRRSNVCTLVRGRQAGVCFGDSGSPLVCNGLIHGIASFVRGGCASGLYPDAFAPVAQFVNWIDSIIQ

T2: Chymase, from human skin (human, UniProt P23946 22-247)
T2 sequence (looked up): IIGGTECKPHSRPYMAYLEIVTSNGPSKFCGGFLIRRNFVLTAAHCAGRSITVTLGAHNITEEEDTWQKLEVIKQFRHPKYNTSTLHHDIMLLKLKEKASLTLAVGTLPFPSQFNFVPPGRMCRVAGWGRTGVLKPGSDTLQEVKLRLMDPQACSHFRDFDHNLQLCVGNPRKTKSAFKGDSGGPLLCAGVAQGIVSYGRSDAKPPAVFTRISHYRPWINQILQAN

T3: CathepsinG, from human neutrophils (human, UniProt P08311 21-244)
T3 sequence (looked up): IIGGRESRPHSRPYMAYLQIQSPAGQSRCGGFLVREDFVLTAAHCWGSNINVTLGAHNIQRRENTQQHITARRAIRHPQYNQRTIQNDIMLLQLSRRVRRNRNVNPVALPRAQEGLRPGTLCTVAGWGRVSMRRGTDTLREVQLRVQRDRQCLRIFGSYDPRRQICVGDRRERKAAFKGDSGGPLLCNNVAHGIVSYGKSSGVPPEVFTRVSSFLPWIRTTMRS

B1: Example 47 (peptide)
peptide: FCTKSDPPICS
HELM: PEPTIDE1{F.C.T.K.S.D.P.P.I.C.S.[dP].D}$PEPTIDE1,PEPTIDE1,2:R3-10:R3|PEPTIDE1,PEPTIDE1,1:R1-13:R2$$$V2.0
SMILES: CC[C@H](C)[C@@H]1NC(=O)[C@@H]2CCCN2C(=O)[C@@H]2CCCN2C(=O)[C@H](CC(=O)O)NC(=O)[C@H](CO)NC(=O)[C@H](CCCCN)NC(=O)[C@H]([C@@H](C)O)NC(=O)[C@@H]2CSSC[C@H](NC1=O)C(=O)N[C@@H](CO)C(=O)N1CCC[C@@H]1C(=O)N[C@@H](CC(=O)O)C(=O)N[C@@H](Cc1ccccc1)C(=O)N2
B2: Example 5 (peptide)
peptide: FCTKSDPPICY
HELM: PEPTIDE1{F.C.T.K.S.D.P.P.I.C.Y.[dP].P}$PEPTIDE1,PEPTIDE1,2:R3-10:R3|PEPTIDE1,PEPTIDE1,1:R1-13:R2$$$V2.0
SMILES: CC[C@H](C)[C@@H]1NC(=O)[C@@H]2CCCN2C(=O)[C@@H]2CCCN2C(=O)[C@H](CC(=O)O)NC(=O)[C@H](CO)NC(=O)[C@H](CCCCN)NC(=O)[C@H]([C@@H](C)O)NC(=O)[C@@H]2CSSC[C@H](NC1=O)C(=O)N[C@@H](Cc1ccc(O)cc1)C(=O)N1CCC[C@@H]1C(=O)N1CCC[C@H]1C(=O)N[C@@H](Cc1ccccc1)C(=O)N2
B3: Example 63 (peptide)
peptide: XCTKSDPPXCY
HELM: PEPTIDE1{[O=C([C@@H](N[*:1])C1CCCCC1)[*:2]].C.T.K.S.D.P.P.[Nle].C.Y.[dP].P}$PEPTIDE1,PEPTIDE1,2:R3-10:R3|PEPTIDE1,PEPTIDE1,1:R1-13:R2$$$V2.0
SMILES: CCCC[C@@H]1NC(=O)[C@@H]2CCCN2C(=O)[C@@H]2CCCN2C(=O)[C@H](CC(=O)O)NC(=O)[C@H](CO)NC(=O)[C@H](CCCCN)NC(=O)[C@H]([C@@H](C)O)NC(=O)[C@@H]2CSSC[C@H](NC1=O)C(=O)N[C@@H](Cc1ccc(O)cc1)C(=O)N1CCC[C@@H]1C(=O)N1CCC[C@H]1C(=O)N[C@@H](C1CCCCC1)C(=O)N2
B4: Example 40 (peptide)
peptide: XCTKSDPPICY
HELM: PEPTIDE1{[O=C([C@@H](N[*:1])C1CCCCC1)[*:2]].C.T.K.S.D.P.P.I.C.Y.[dP].P}$PEPTIDE1,PEPTIDE1,2:R3-10:R3|PEPTIDE1,PEPTIDE1,1:R1-13:R2$$$V2.0
SMILES: CC[C@H](C)[C@@H]1NC(=O)[C@@H]2CCCN2C(=O)[C@@H]2CCCN2C(=O)[C@H](CC(=O)O)NC(=O)[C@H](CO)NC(=O)[C@H](CCCCN)NC(=O)[C@H]([C@@H](C)O)NC(=O)[C@@H]2CSSC[C@H](NC1=O)C(=O)N[C@@H](Cc1ccc(O)cc1)C(=O)N1CCC[C@@H]1C(=O)N1CCC[C@H]1C(=O)N[C@@H](C1CCCCC1)C(=O)N2
B5: Example 68 (peptide)
peptide: FCTKSDPPICS
HELM: PEPTIDE1{F.C.T.K.S.D.P.P.I.C.S.[dA].D}$PEPTIDE1,PEPTIDE1,2:R3-10:R3|PEPTIDE1,PEPTIDE1,1:R1-13:R2$$$V2.0
SMILES: CC[C@H](C)[C@@H]1NC(=O)[C@@H]2CCCN2C(=O)[C@@H]2CCCN2C(=O)[C@H](CC(=O)O)NC(=O)[C@H](CO)NC(=O)[C@H](CCCCN)NC(=O)[C@H]([C@@H](C)O)NC(=O)[C@@H]2CSSC[C@H](NC1=O)C(=O)N[C@@H](CO)C(=O)N[C@H](C)C(=O)N[C@@H](CC(=O)O)C(=O)N[C@@H](Cc1ccccc1)C(=O)N2
B6: Example 64 (peptide)
peptide: FCTKSDPPICS
HELM: PEPTIDE1{F.C.T.K.S.D.P.P.I.C.S.[dP].E}$PEPTIDE1,PEPTIDE1,2:R3-10:R3|PEPTIDE1,PEPTIDE1,1:R1-13:R2$$$V2.0
SMILES: CC[C@H](C)[C@@H]1NC(=O)[C@@H]2CCCN2C(=O)[C@@H]2CCCN2C(=O)[C@H](CC(=O)O)NC(=O)[C@H](CO)NC(=O)[C@H](CCCCN)NC(=O)[C@H]([C@@H](C)O)NC(=O)[C@@H]2CSSC[C@H](NC1=O)C(=O)N[C@@H](CO)C(=O)N1CCC[C@@H]1C(=O)N[C@@H](CCC(=O)O)C(=O)N[C@@H](Cc1ccccc1)C(=O)N2
B7: Example 44 (peptide)
peptide: XCTKSDPPICY
HELM: PEPTIDE1{[Nle].C.T.K.S.D.P.P.I.C.Y.[dP].P}$PEPTIDE1,PEPTIDE1,2:R3-10:R3|PEPTIDE1,PEPTIDE1,1:R1-13:R2$$$V2.0
SMILES: CCCC[C@@H]1NC(=O)[C@@H]2CCCN2C(=O)[C@H]2CCCN2C(=O)[C@H](Cc2ccc(O)cc2)NC(=O)[C@@H]2CSSC[C@H](NC1=O)C(=O)N[C@@H]([C@@H](C)O)C(=O)N[C@@H](CCCCN)C(=O)N[C@@H](CO)C(=O)N[C@@H](CC(=O)O)C(=O)N1CCC[C@H]1C(=O)N1CCC[C@H]1C(=O)N[C@@H]([C@@H](C)CC)C(=O)N2
B8: Example 46 (peptide)
peptide: FCTKSDPPICS
HELM: PEPTIDE1{F.C.T.K.S.D.P.P.I.C.S.[dD].P}$PEPTIDE1,PEPTIDE1,2:R3-10:R3|PEPTIDE1,PEPTIDE1,1:R1-13:R2$$$V2.0
SMILES: CC[C@H](C)[C@@H]1NC(=O)[C@@H]2CCCN2C(=O)[C@@H]2CCCN2C(=O)[C@H](CC(=O)O)NC(=O)[C@H](CO)NC(=O)[C@H](CCCCN)NC(=O)[C@H]([C@@H](C)O)NC(=O)[C@@H]2CSSC[C@H](NC1=O)C(=O)N[C@@H](CO)C(=O)N[C@H](CC(=O)O)C(=O)N1CCC[C@H]1C(=O)N[C@@H](Cc1ccccc1)C(=O)N2
B9: Example 4 (peptide)
peptide: FCTKSDPPICS
HELM: PEPTIDE1{F.C.T.K.S.D.P.P.I.C.S.[dP].P}$PEPTIDE1,PEPTIDE1,2:R3-10:R3|PEPTIDE1,PEPTIDE1,1:R1-13:R2$$$V2.0
SMILES: CC[C@H](C)[C@@H]1NC(=O)[C@@H]2CCCN2C(=O)[C@@H]2CCCN2C(=O)[C@H](CC(=O)O)NC(=O)[C@H](CO)NC(=O)[C@H](CCCCN)NC(=O)[C@H]([C@@H](C)O)NC(=O)[C@@H]2CSSC[C@H](NC1=O)C(=O)N[C@@H](CO)C(=O)N1CCC[C@@H]1C(=O)N1CCC[C@H]1C(=O)N[C@@H](Cc1ccccc1)C(=O)N2

How the values were obtained:
Assay in all cases: cell-based or functional assay
[1] = biological target: T1, Elastase from human neutrophils
[2] = biological target: Trypsin, Iodination grade, from human pancreas (human, UniProt P07477 24-247)
[3] = biological target: Chymotrypsin, from human pancreas (human, UniProt P17538 19-263)
[4] = biological target: Thrombin, from Human Plasma, high activity (human, UniProt P00734 328-622)
Chymase, from human skin = biological target: T2, Chymase, from human skin
[5] = biological target: Urokinase from human urine (human, UniProt P00749 21-431, limits assumed)
[6] = biological target: T3, CathepsinG, from human neutrophils
[7] = biological target: Tryptase, from human lung (human, UniProt Q15661 31-275, limits assumed)
[8] = biological target: Coagulation Factor Xa, from human plasma (human, UniProt P00742 41-488, limits assumed)
Chain of Coagulation Factor Xa, from human plasma (P00742 41-488 limits assumed): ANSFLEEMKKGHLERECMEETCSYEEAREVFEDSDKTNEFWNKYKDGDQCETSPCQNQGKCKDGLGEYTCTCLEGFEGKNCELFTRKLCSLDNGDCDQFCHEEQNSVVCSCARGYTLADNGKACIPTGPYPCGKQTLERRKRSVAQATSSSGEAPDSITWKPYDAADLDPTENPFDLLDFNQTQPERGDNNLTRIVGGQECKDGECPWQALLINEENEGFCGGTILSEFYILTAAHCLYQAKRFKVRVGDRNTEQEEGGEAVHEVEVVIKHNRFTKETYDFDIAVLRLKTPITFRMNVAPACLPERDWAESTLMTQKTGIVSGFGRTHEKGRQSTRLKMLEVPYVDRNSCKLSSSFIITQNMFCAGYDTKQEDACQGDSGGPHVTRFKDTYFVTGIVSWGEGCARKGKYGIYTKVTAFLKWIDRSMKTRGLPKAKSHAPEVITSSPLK

Chain of Chymotrypsin, from human pancreas (P17538 19-263): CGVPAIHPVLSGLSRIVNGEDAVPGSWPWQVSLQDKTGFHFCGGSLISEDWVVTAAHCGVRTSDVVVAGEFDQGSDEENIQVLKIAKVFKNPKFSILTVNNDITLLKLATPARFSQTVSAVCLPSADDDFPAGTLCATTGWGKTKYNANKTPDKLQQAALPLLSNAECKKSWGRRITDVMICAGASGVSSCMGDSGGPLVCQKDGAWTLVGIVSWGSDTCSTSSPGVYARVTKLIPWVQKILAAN
Chain of Tryptase, from human lung (Q15661 31-275 limits assumed): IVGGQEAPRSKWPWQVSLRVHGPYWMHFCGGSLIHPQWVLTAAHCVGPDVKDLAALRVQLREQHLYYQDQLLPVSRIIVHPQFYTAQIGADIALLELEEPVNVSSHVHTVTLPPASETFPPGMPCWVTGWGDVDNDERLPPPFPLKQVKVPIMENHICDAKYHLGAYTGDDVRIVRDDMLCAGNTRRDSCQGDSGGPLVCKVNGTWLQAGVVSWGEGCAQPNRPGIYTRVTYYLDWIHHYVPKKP

Row | Binder | IC50 [1] | % inhibition at 100 µM [2] | % inhibition at 100 µM [3] | % inhibition at 100 µM [4] | % inhibition at 100 µM (Chymase, from human skin) | % inhibition at 100 µM [5] | IC50 [6] | % inhibition at 100 µM [7] | % inhibition at 100 µM [8]
1 | B1 | > 10000 nmol | 87% | 1% | 0% | 8.2% | 6.3% | 64 nmol | 0% | 9.3%
2 | B2 | > 100000 nmol | 92% | 3% | 0.5% | 0% | 5.7% | 56 nmol | 74% | 0.2%
3 | B3 | > 100000 nmol | 96% | 11% | 1% | 7% | 0% | 41 nmol | 50% | 0%
4 | B4 | > 44900 nmol | 94% | 19% | 1% | 8% | 10% | 25 nmol | 33% | 3%
5 | B5 | > 100000 nmol | 84.2% | 4.3% | 5.4% | 0% | 4.6% | 59 nmol | 21.3% | 8.6%
6 | B6 | > 100000 nmol | 87% | 0% | 2.3% | 0% | 3% | 45 nmol | 0% | 0%
7 | B7 | > 10000 nmol | 100% | 24% | 9% | 3% | 14% | 31 nmol | 50% | 9%
8 | B8 | > 100000 nmol | 95% | 0% | 6.9% | 10.2% | 5.8% | 87.5 nmol | 44.1% | 12.2%
9 | B9 | > 100000 nmol | 96% | 1.8% | 0% | 0% | 5.4% | 91 nmol | 0% | 2.4%
